Experimental findings from publication PMC12187869, “Transport of the uremic toxin symmetric dimethylarginine (SDMA) by renal transport proteins” (Amino Acids, 2025) are described below.

In this series the test system is T1, CN=C(NC)NCCC[C@H](N)C(=O)O.
T1 construct: HEK293 cells stably expressing human CAT1
Briefly: [3H]SDMA uptake kinetics (Km) and efflux in HEK-CAT1 cells. The series is classed as cell-based, Homo sapiens.

CAT1 (Homo sapiens), sequence (chain, as listed by the source): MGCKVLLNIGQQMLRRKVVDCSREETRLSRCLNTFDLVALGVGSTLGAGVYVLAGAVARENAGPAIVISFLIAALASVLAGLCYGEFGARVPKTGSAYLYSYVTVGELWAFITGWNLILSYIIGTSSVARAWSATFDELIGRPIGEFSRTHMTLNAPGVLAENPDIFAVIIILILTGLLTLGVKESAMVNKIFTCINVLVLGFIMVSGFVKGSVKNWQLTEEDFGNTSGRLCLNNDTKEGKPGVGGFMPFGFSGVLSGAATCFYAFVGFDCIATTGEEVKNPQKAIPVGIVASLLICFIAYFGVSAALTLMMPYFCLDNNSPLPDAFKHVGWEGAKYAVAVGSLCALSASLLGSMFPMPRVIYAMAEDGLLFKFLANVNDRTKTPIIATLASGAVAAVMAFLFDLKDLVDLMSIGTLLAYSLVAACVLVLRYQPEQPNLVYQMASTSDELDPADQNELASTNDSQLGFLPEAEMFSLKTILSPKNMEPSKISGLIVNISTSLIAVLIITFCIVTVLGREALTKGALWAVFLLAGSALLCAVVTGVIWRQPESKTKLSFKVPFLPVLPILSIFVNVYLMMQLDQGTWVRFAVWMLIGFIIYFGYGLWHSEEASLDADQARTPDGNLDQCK

In the case of CAT1 (Homo sapiens), the Km is recorded as 246 µM.
